A short description of this data set: label from the status in PepcDB records.

The text below walks through data of a protein production outcome set (Wang et al. 2014).
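Further: failed if final PepcDB status was selected cloned or expressed and not failed if soluble or beyond.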

In the case of “MFCGRFANFIMRDVINFIKKYNNFVIIGHKDPDFDCIGSSLALSSFLSRIGKNSILLNEGPFIRKEIVPFKDKFLSEWPNIEISEYSVIILDCSILDRIGDEFIFYVKNMPTLVIDHHMSGEKLECEGYIDPFAPSTTFLIEKLIREFGHDLTKEEAWYILVGFCTDTGFFKFISRSDPEPFEMVARLVSKGISLKEVYSYIETTKSLKSIETLKLMLNSLESYWNGKVLFTFLSSSSSGKDGGVSGVNELFYMILSNVENNEILGILKEMEDGSIIVGLRSKDSFDVGKLAEDFGGGGHKNASGFRIKQGSLEIVKNRMLAYIKDNIYLLEHHHHHH”, the protein production result was “failed”.
On to “MFDATRAAFLGVAVFISVLLVASFFSPTPGRAVEPAPAGAPAQEGSLPHDGLGSIKPIHDVDLGGVEQPPLPAPVDPDPSFNPQPPFAPGELREGFVDVGNGNIRRYLIHVGTNYQPHAPELTPVVFGFGGWKDTPEKFADYSRFGLTDFGANAMIIYPEGIARAWEGAPYAATRVGDDVHFVRTILNAVDADYRIDRSRVYAVGMSNGGGMAASLACHAPDLVAGVVSVSAAYYEPVVADCAPGAVATLDIHGTHDEVIAYQGGMRHGAPFLGAEQVVAGVAARNGCGPALPPRWIEGPAEHYGFAGCAAPVEHVRVLGQKHVWNGVPHATTLAWEFLHHQHK”, for which the protein production result was “failed”.
Regarding “MFDNLTDRLSRTLRNISGRGRLTEDNVKDTLREVRMALLEADVALPVVREFINRVKEKAVGHEVNKSLTPGQEFVKIVRNELVAAMGEENQTLNLAAQPPAVVLMAGLQGAGKTTSVGKLGKFLREKHKKKVLVVSADVYRPAAIKQLETLAEQVGVDFFPSDVGQKPVDIVNAALKEAKLKFYDVLLVDTAGRLHVDEAMMDEIKQVHASINPVETLFVVDAMTGQDAANTAKAFNEALPLTGVVLTKVDGDARGGAALSIRHITGKPIKFLGVGEKTEALEPFHPDRIASRILGMGDVLSLIEDIESKVDRAQAEKLASKLKKGDGFDLNDFLEQLRQMKNMGGMASLMGKLPGMGQIPDNVKSQMDDKVLVRMEAIINSMTMKERAKPEIIKGSRKRRIAAGCGMQVQDVNRLLKQFDDMQRMMKKMKKGGMAKMMRSMKGMMPPGFPGR”, the protein production entry is “failed”.
The result for “MFDQYRKTILAGAVALTCGLTAASTFAAGFQPAQPAGKLGAVVVDPYGNAPLTALVELDSHIISDVKVTVHGKGEKGVPVTYTVGKESLETYDGIPIFGLYQKFANNVTVEYKENGKAMKDDYVVQTSAIVNHYMDNRSISDLQQTKVIKVAPGFEDRLYLVNTHTFTPQGAEFHWHGEKDKNAGILDAGPAGGALPFDIAPYTFVVDTQGEYRWWLDQDTFYDGHDMNINKRGYLMGIRETPRGTFTAVQGQHWYEFDMMGQILADHKLPRGFLDASHESIETVNGTVLLRVGKRVTAKKTAYMFILFVTKSLRSISLAALEHHHHHH” reads “failed”; that for “MFDQYRKTILAGAVALTCGLTAASTFAAGFQPAQPAGKLGAVVVDPYGNAPLTALVELDSHIISDVKVTVHGKGEKGVPVTYTVGKESLETYDGIPIFGLYQKFANNVTVEYKENGKAMKDDYVVQTSAIVNHYMDNRSISDLQQTKVIKVAPGFEDRLYLVNTHTFTPQGAEFHWHGEKDKNAGILDAGPAGGALPFDIAPYTFVVDTQGEYRWWLDQDTFYNGHDMNINKRGYLMGIRETPRGTFTAVQGQHWYEFDMMGQVLADHKLPRGFLDASHESIETVNGTVLLRVGKRDYRKEDGIHVHTIRDQIIEVDKSGRVVDVWDLTKILDPMRDALLGALDAGAVCVNVDLAHAGQQAKLEPDTPYGDALGVGAGRNWAHVNSIAYDAKDDSIILSSRHQGIVKIGRDKQVKWILAPSKGWNKQLASKLLKPVDDHGKPLTCDENGKCKDTDFDFTYTQHTAWLSSKGTLTVFDNGDGRGLEQPALPTMKYSRFVEYKIDEKKGTVQQVWEYGKERGYDFYSPITSVVEYQKDRDTMFGFGGSINLFDVGKPTVGKLNEIDYKTKEVKVEIDVLSDKPNQTHYRALLVHPTQMFK”, “failed”.
Turning to “MFDWLTNSTAIIIILPVVVFVLTLFLARFKFRKPQRRIMLAADLSTIFLIIAVHFFMIVIFNRSFLLYILLFLFILGIVIVVLAAKKEGEIQFRKILRGYWRLCFFIFALLYVVLYLYGIIYSLILLF”, the protein production result is recorded as “failed”.
As to “MFELFQYDFMRNALLAATAISIFSPLLGVFLVLRRQSLMSDTLSHVSLAGVAFGVLLSWNPTITTLITVVIAAVFLEYLRTIYHNYMEIATAILMSAGLAIALLILNSSKGATSVSLEQYLFGSIITISLSQVIMLFVLAAVVLLGFILFLRPLYVMTFDEDTAFVDGLPVRWISIAFNIVTGVAIALMIPAAGALLVSAIMVLPASIAMRLGKSFKAVLFISAIVSFIGLNAGLIASYYMDAPASAAITLIFIVLFLVTSSLKRLIRA”, the protein production result is listed as “failed”.
“MFETFFSTYLSSTIRFLFLLAPFFVVTMFLALTRGLSMAEKTSIIRRACVSAFILGVILFFAGPLLFNAIGITLNSFRIGAGSLLFLTAISLVNSGTRNHATGLPEEDRDDIAVVPLAIPVMIGPATIGAIMVYGAELKAVPEVAGGLLGLVSGLMILAGLLRLSGYLEKALGKTGLNIMSKISGLILSAMAAEIVLTGIAGFIASTSGA”: the protein production entry was “failed”.
As for “MFFGLTLGTAVATGGRDSTLKRAAPQASCMDVHNVTAEAETFTCNAYLATGEQTTLVDAGAMRGVVDVIREHADALDAVVLTHQHGDHVQRLDTVLDAFDAPLYAYGSHPRRDHALADGDTLTVGDEECEVVYTPGHADDHVSLVSESALFSGDVVVHDDGAFDDGSFGRTDRPGQSRERLIESIERILDRMPAGVEHMYSGHGGVFHGDVREVVERALERAERREPKYPDD”, the protein production result was “failed”.
Take “MFFKQFYDNHLSQASYLVGCQRTGEAIIIDPVRDLSKYIEVADSEGLTITQATETHIHADFASGIRDVAKRLNANIYVSGEGEDALGYKNMPSKTQFVKHGDIIQVGNVKLEVLHTPGHTPESISFLLTDLGGGSSVPMGLFSGDFIFVGDIGRPDLLEKSVQIKGSTEISAKQMYESVQNIKNLPDYVQIWPGHGAGSPCGKALGAIPISTIGYEKINNWAFNEIDETKFIESLTSNQPAPPHHFAQMKQVNQFGMNLYQSYDVYPSLDNKRVAFDLRSKEAFHGGHTKGTINIPYNKNFINQIGWYLDFEKDIDLIGDKSTVEKAKHTLQLIGFDKVAGYRLPKSGISTQSVHSADMTGKEEHVLDVRNDEEWNNGHLDQAVNIPHGKLLNENIPFNKEDKIYVHCQSGVRSSIAVGILESKGFENVVNIREGYQDFPESLKLEHHHHHH”: the protein production result is “not failed”.
Turning to “MFFNFLIPPNSFSSFPEYVAFVVSLSYALNATLLLLYSRIFGVEVKEKAFIPVTLSFVAIDFTSIQGLRLFVGIPAYLGVVILTSLCILEGLALALTSSLALVNASRRHLAATWIAANVASSGLFMAFVGVS”, the protein production result is “failed”.
Consider “MFGISISSAILHFVIGGFAVALASIMADKVGGKLGGIIATMPAVYLAAIIALAIDHKGQQLIQMSIHLSTGAIVGIVSCIVTVFFTSIFIGKKNYRSGTVFAILCWFVISVAIFLVRHI”, for which the protein production entry is reported as “failed”.
As to “MFGKLLKKEIKELLNLGAIVSVIVVAVLYGSLGNVFKSTVEKSTVGQKVAIVREDTGTIAELAEKALGNMVDIVYAGSDLKEAEEAVKKEKAPAIIVIPKGFSQSLESGEKARLEIVWYLRGTGLSEAVSTGTISSLIESLKVQLASFLLNDPKKAQLLFDPLEIVQHTYLRGSLFKNHSPEAIMNVFYSQNIMIPILIMMLIIMSGSSLISSLAMEKENKTLETLLTMPVKREHIALAKIVGSAIVGLILAGIYMAGFYSYLNSLTQNVQGMGLNFKAVDFLLMGSSLFLSILAGLSLCMLLGMMAKDYRSAQLLTFPISILALVPMIANMIMDFSNLPGVLKVIVFLIPFSHPIMSPKLAFYGDYGLIVSGILYLLIFSIVTTVFVFRIFNSDYVVLGWQREKRLKFFSR”, the protein production result was “failed”.
Take “MFGMTLVNIFVPKLNLYHFVVGVIYLFPMIVIGFKIVKNRNITGLPLFICSGIVGVWAILLHMKMNLGHDYEFFSGPIQETVMLILLLVAVPLSYYVFACSVGCKDTRNMKALKIFPVVAFFIIVITEILGISYYGMANYVLLFSFLLLIGPLLGGLYIWEIMSNIQFKNYTT”: the protein production entry was “failed”.
Take “MFGQWEFDVSPTGGIAVASTEVEHFAGSQHEVDTAEVPSAAWGWSRIDHRTWHIVGLCIFGFLLAMLRGNHVGHVEDWFLITFAAVVLFVLARDLWGRRRGWIR”: the protein production result was “failed”.
As for “MFIEALILLCLVGAAAVFIAPDRYAHKLALGLSVPPLVVSLYMYAAFDGSGNALLGGDIAYETATEWLQLGQYTVSYHVGLDGISLPLVVLSTVLTTLAILSAWTPIDERQSEFYGLVLLLEGSLIGVFAALDFILWFVFWEAVLIPMYLLIGVWGGPRRKYAAIKFFVYTNIASLVMFIGYFALVFGLGDAVSSTGMPAVAQALRADQLGYLGTAAVGIGPDMLAMAAFLAMFVGFAVKVPVVPFHTWLPDAHVEAPTPVSVLLAGVLLKMGTYALLRFNFTMLPDQVETFAVPIALIAIISILYGALLALAQKDLKRIVAYSSVSSMGYVILGLVAYTVYGVGGATFQMIAHGLISGLLFMTVGVFYNATHTRMVGDMGGLADRMPVTAGIFIAGAFGYMGLPLMAGFMAELFVFIGAFQSAILPYAPVITAAGMFGIVVVAGYLLWAMQRSLFGPFRLETDYELERAPVHDIVPLLTLVALIIALGVAPDLIFEMIRDATHSVIDYDFGGDL”, the protein production result is “failed”.
For “MFIKAERLLIRKFEFKDWEAVHEYTSDSDVMKYIPEGVFTEEDTRNFVNKNMGENAKNFPVILIGENILVGHIVFHKYFGEHTYEIGWVFNPKYFNKGYASEAAQATLKYGFKEMKLHRIIATCQPENTPSYRVMEKIGMRREGYFKKCIPHGNEWWDEYYYAILEEE”, the protein production result is listed as “not failed”.
The result for “MFIKVKLPWDVTIPAEDMDTGLMLQRAIVIRLLEAFSKEKATKDLGYLITPTILENIGEGKIKEQTGEIQFPVVFNGICFKMFKGEIVHGVVHKVHKTGVFLKSGPYEIIYLSHMKMPGYEFIPGENPFFMNQYMSRIQIGARVRFVVLDTEWREAEKDFMALASIDGDNLGPF” reads “failed”.
Turning to “MFIYGHMEKSERKNYLRESREVSYISLALLIISYIVISSIRFSFYLLSIMLIVSLLNFSIYFYMRYKIHARYHKNIDIQGYILEDNSWRYVLSLSVLLTIFIFLEYPFPFIRFYSFILIVNAFVITTWIVSLNGPIIGMLISRSDPLYEPFLYRAMELANAMNINVPDLYILDTRNRIANAFTVSRKESYVFITRLLMNILDVDEVTAVMAHEFAHIKLRHNLKTSIINFAVILFLINIALYGLTLDSFAGIMLPVISIIIYMFFTTFLLNYIKRRNEINADLTAIKYVNPDYLISALHKIENLEIFSRRISDIYLDHPSIDRRISIINRSRSS”, the protein production entry is recorded as “failed”.
As for “MFKIDLFSNKKAVEGFILFQLTIVMISILISYKMAYSMTHIIEQNIIFNIIFGIVGFAVVYFLHEFIHNIMFRVMSKGNKPTYRIKSGLITTHMPNVYFKKWQYMTIMLAPLVIITSVLLVIFSYFAYSSIIFIACFHIGYCVMDMYFLTGLLNKHVQLIEDTEEGIKFYTQAPAPAQEFRTELKS”, the entry is “failed”; as for “MFKITPFSTQQHVIIQITDTHLLEDPQQEFVGINPERSFHCVMQHIRQHHAQIDAIIHTGDLAQTPTPATYARYLDFMQSFGVPFFHVPGNHDHPEFFPFHQASPSELSIVVLGNWHVILMNSAVVGQVDGWINDQQIQQLRDHLAAHPDTPTIVACHHHPFDMHSKWIDQHKLKNTPDLLATFKHYPQIRAVLCGHVHQESLHRWEHIDFLSSPSTSVQFKPRSDEFAFDTLPSGYRILRLNSDGQFDSNIHRIENMLQNINTEISGY”, “failed”.
